These results are taken from patent publication US20200377590A1 (Hoffmann-La Roche, published 2020).

B1: CD81K04 HC JA_GG-14-hVH_1_69-GA / LC JA_GG-10-hVK_4_1 (antibody, V domains shown)
VH: QVQLVQSGAEVKKPGSSVKVSCKASGYTFSSSWMNWVRQAPGQGLEWMGRIYSGDGDAIYNGKFKGKATITADESTSTAYMELSSLRSEDTAVYYCAREGKTGDLLLRSWGQGTLVTVSS
VL: DIVMTQSPDSLAVSLGERATINCRASKSVSTSIYSYMHWYQQKPGQPPKLLIKYASYLESGVPDRFSGSGSGTDFTLTISSLQAEDVAVYYCEHSREFPFTFGQGTKLEIK
notes: human constant region
B2: CD81K04 HC JA_GG-15-hVH_1_3 / LC GG-03-hVK_4_1 (antibody, V domains shown)
VH: QVQLVQSGAEVKKPGASVKVSCKASGYTFSSSWMNWVRQAPGQRLEWMGRIYSGDGDAIYNGKFKGRVTITADTSASTAYMELSSLRSEDTAVYYCAREGKTGDLLLRSWGQGTLVTVSS
VL: DIVMTQSPDSLAVSLGERATINCKSSKSVSTSIYSYLAWYQQKPGQPPKLLIYYASYRESGVPDRFSGSGSGTDFTLTISSLQAEDVAVYYCQHSREFPFTFGQGTKLEIK
notes: human constant region
B3: CD81K04 HC K04_JA-13-hVH_1_3 / LC GG-03-hVK_4_1 (antibody, V domains shown)
VH: QVQLVQSGAEVKKPGASVKVSCKASGYTFSSSWMNWVRQAPGQRLEWMGRIYSGDGDAIYNGKFKGRVTITRDTSASTAYMELSSLRSEDTAVYYCAREGKTGDLLLRSWGQGTLVTVSS
VL: DIVMTQSPDSLAVSLGERATINCKSSKSVSTSIYSYLAWYQQKPGQPPKLLIYYASYRESGVPDRFSGSGSGTDFTLTISSLQAEDVAVYYCQHSREFPFTFGQGTKLEIK
notes: human constant region
B4: CD81K04 HC JA_GG-16-hVH_1_3 / LC GG-02-hVK_4_1 (antibody, V domains shown)
VH: QVQLVQSGAEVKKPGASVKVSCKASGYTFSSSWMNWVRQAPGQGLEWMGRIYSGDGDAIYNGKFKGRVTITADTSASTAYMELSSLRSEDTAVYYCAREGKTGDLLLRSWGQGTLVTVSS
VL: DIVMTQSPDSLAVSLGERATINCKSSKSVSTSIYSYMHWYQQKPGQPPKLLIYYASYRESGVPDRFSGSGSGTDFTLTISSLQAEDVAVYYCQHSREFPFTFGQGTKLEIK
notes: human constant region
B5: CD81K04 HC JA_GG-16-hVH_1_3 / LC JA_GG-10-hVK_4_1 (antibody, V domains shown)
VH: QVQLVQSGAEVKKPGASVKVSCKASGYTFSSSWMNWVRQAPGQGLEWMGRIYSGDGDAIYNGKFKGRVTITADTSASTAYMELSSLRSEDTAVYYCAREGKTGDLLLRSWGQGTLVTVSS
VL: DIVMTQSPDSLAVSLGERATINCRASKSVSTSIYSYMHWYQQKPGQPPKLLIKYASYLESGVPDRFSGSGSGTDFTLTISSLQAEDVAVYYCEHSREFPFTFGQGTKLEIK
notes: human constant region
B6: CD81K04 HC JA_GG-15-hVH_1_3 / LC GG-02-hVK_4_1 (antibody, V domains shown)
VH: QVQLVQSGAEVKKPGASVKVSCKASGYTFSSSWMNWVRQAPGQRLEWMGRIYSGDGDAIYNGKFKGRVTITADTSASTAYMELSSLRSEDTAVYYCAREGKTGDLLLRSWGQGTLVTVSS
VL: DIVMTQSPDSLAVSLGERATINCKSSKSVSTSIYSYMHWYQQKPGQPPKLLIYYASYRESGVPDRFSGSGSGTDFTLTISSLQAEDVAVYYCQHSREFPFTFGQGTKLEIK
notes: human constant region
B7: CD81K04 HC JA_GG-16-hVH_1_3 / LC GG-04-hVK_4_1 (antibody, V domains shown)
VH: QVQLVQSGAEVKKPGASVKVSCKASGYTFSSSWMNWVRQAPGQGLEWMGRIYSGDGDAIYNGKFKGRVTITADTSASTAYMELSSLRSEDTAVYYCAREGKTGDLLLRSWGQGTLVTVSS
VL: DIVMTQSPDSLAVSLGERATINCKSSKSVSTSIYSYLAWYQQKPGQPPKLLIYYASTRESGVPDRFSGSGSGTDFTLTISSLQAEDVAVYYCQHSREFPYTFGQGTKLEIK
notes: human constant region
B8: CD81K04 HC JA_GG-15-hVH_1_3 / LC JA_GG-10-hVK_4_1 (antibody, V domains shown)
VH: QVQLVQSGAEVKKPGASVKVSCKASGYTFSSSWMNWVRQAPGQRLEWMGRIYSGDGDAIYNGKFKGRVTITADTSASTAYMELSSLRSEDTAVYYCAREGKTGDLLLRSWGQGTLVTVSS
VL: DIVMTQSPDSLAVSLGERATINCRASKSVSTSIYSYMHWYQQKPGQPPKLLIKYASYLESGVPDRFSGSGSGTDFTLTISSLQAEDVAVYYCEHSREFPFTFGQGTKLEIK
notes: human constant region
B9: CD81K04 HC JA_GG-16-hVH_1_3 / LC GG-03-hVK_4_1 (antibody, V domains shown)
VH: QVQLVQSGAEVKKPGASVKVSCKASGYTFSSSWMNWVRQAPGQGLEWMGRIYSGDGDAIYNGKFKGRVTITADTSASTAYMELSSLRSEDTAVYYCAREGKTGDLLLRSWGQGTLVTVSS
VL: DIVMTQSPDSLAVSLGERATINCKSSKSVSTSIYSYLAWYQQKPGQPPKLLIYYASYRESGVPDRFSGSGSGTDFTLTISSLQAEDVAVYYCQHSREFPFTFGQGTKLEIK
notes: human constant region
B10: CD81K04 HC K04_JA-13-hVH_1_3 / LC GG-02-hVK_4_1 (antibody, V domains shown)
VH: QVQLVQSGAEVKKPGASVKVSCKASGYTFSSSWMNWVRQAPGQRLEWMGRIYSGDGDAIYNGKFKGRVTITRDTSASTAYMELSSLRSEDTAVYYCAREGKTGDLLLRSWGQGTLVTVSS
VL: DIVMTQSPDSLAVSLGERATINCKSSKSVSTSIYSYMHWYQQKPGQPPKLLIYYASYRESGVPDRFSGSGSGTDFTLTISSLQAEDVAVYYCQHSREFPFTFGQGTKLEIK
notes: human constant region
B11: CD81K04 HC JA_GG-15-hVH_1_3 / LC JA_GG-09-hVK_4_1 (antibody, V domains shown)
VH: QVQLVQSGAEVKKPGASVKVSCKASGYTFSSSWMNWVRQAPGQRLEWMGRIYSGDGDAIYNGKFKGRVTITADTSASTAYMELSSLRSEDTAVYYCAREGKTGDLLLRSWGQGTLVTVSS
VL: DIVMTQSPDSLAVSLGERATINCKSSKSVSTSIYSYMHWYQQKPGQPPKLLIKYASTRESGVPDRFSGSGSGTDFTLTISSLQAEDVAVYYCEHSREFPFTFGQGTKLEIK
notes: human constant region
B12: CD81K04 HC K04_JA-13-hVH_1_3 / LC GG-04-hVK_4_1 (antibody, V domains shown)
VH: QVQLVQSGAEVKKPGASVKVSCKASGYTFSSSWMNWVRQAPGQRLEWMGRIYSGDGDAIYNGKFKGRVTITRDTSASTAYMELSSLRSEDTAVYYCAREGKTGDLLLRSWGQGTLVTVSS
VL: DIVMTQSPDSLAVSLGERATINCKSSKSVSTSIYSYLAWYQQKPGQPPKLLIYYASTRESGVPDRFSGSGSGTDFTLTISSLQAEDVAVYYCQHSREFPYTFGQGTKLEIK
notes: human constant region
B13: CD81K04 HC JA_GG-15-hVH_1_3 / LC GG-04-hVK_4_1 (antibody, V domains shown)
VH: QVQLVQSGAEVKKPGASVKVSCKASGYTFSSSWMNWVRQAPGQRLEWMGRIYSGDGDAIYNGKFKGRVTITADTSASTAYMELSSLRSEDTAVYYCAREGKTGDLLLRSWGQGTLVTVSS
VL: DIVMTQSPDSLAVSLGERATINCKSSKSVSTSIYSYLAWYQQKPGQPPKLLIYYASTRESGVPDRFSGSGSGTDFTLTISSLQAEDVAVYYCQHSREFPYTFGQGTKLEIK
notes: human constant region
B14: CD81K04 HC JA_GG-16-hVH_1_3 / LC JA_GG-09-hVK_4_1 (antibody, V domains shown)
VH: QVQLVQSGAEVKKPGASVKVSCKASGYTFSSSWMNWVRQAPGQGLEWMGRIYSGDGDAIYNGKFKGRVTITADTSASTAYMELSSLRSEDTAVYYCAREGKTGDLLLRSWGQGTLVTVSS
VL: DIVMTQSPDSLAVSLGERATINCKSSKSVSTSIYSYMHWYQQKPGQPPKLLIKYASTRESGVPDRFSGSGSGTDFTLTISSLQAEDVAVYYCEHSREFPFTFGQGTKLEIK
notes: human constant region
B15: CD81K04 HC JA_GG-15-hVH_1_3 / LC JA_GG-08-hVK_4_1 (antibody, V domains shown)
VH: QVQLVQSGAEVKKPGASVKVSCKASGYTFSSSWMNWVRQAPGQRLEWMGRIYSGDGDAIYNGKFKGRVTITADTSASTAYMELSSLRSEDTAVYYCAREGKTGDLLLRSWGQGTLVTVSS
VL: DIVMTQSPDSLAVSLGERATINCKSSKSVSTSIYSYMHWYQQKPGQPPKLLIKYASYLESGVPDRFSGSGSGTDFTLTISSLQAEDVAVYYCEHSREFPFTFGQGTKLEIK
notes: human constant region

In the assay the target is T1, CD81 (UniProt P60033 1-236, limits assumed).
T1 construct: whole, on cells; also called CD81 receptor
T1 sequence (looked up): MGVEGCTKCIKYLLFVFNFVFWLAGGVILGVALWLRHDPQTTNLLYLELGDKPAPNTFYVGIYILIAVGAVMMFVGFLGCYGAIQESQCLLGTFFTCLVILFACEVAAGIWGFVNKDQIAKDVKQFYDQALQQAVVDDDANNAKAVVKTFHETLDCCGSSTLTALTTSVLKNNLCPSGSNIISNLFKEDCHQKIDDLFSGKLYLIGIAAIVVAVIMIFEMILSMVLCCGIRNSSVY
The assay can be described thus: cell ELISA.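 Note: antibody binding to HuH7 cells expressing CD81 versus a CD81-negative HuH7 control line, bound antibody detected by secondary reagent, absorbance at 450 nm with 620 nm reference.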
Description: For the binding cell ELISA assay, HuH7-Rluc-H3 (positive cell line expressing CD81) and HuH7-Rluc-L1 (negative control cell line) were propagated in F-12 DMEM medium with 10% FCS at 37° C. and 5% CO₂. On day 1, the cells were trypsinized at approximately 90% confluence and resuspended at 4×10⁵ cells/mL. […] On day 2, the antibody samples to be tested were prepared in a separate polypropylene round bottom plate with a twofold desired concentration with a final volume of 120 μl. All of the assay samples were diluted in cell culture medium. […] After fixation, each well was washed 3 times with 200 μL PBS/0.05% Tween. The secondary incubation step for detection of bound anti-CD81 antibodies was performed for 2 h at room temperature on a reciprocal shaker. […] Each well was washed three times with 200 μL PBS/0.05% Tween to remove unbound antibodies. […] The absorbance was read using the ELISA Tecan reader at 450 nm with 620 nm reference wavelength.
In the case of B1, the ELISA data was 0.733.
B2: the ELISA data stood at 0.545.
On to B3, for which the ELISA data is 0.423.
For B4 the value was 0.596; for B5, 0.88; for B6, 0.602.
The value for B7 was 0.263; that for B8 was 0.915.
Take B9: the ELISA data came to 0.437.
The value for B10 was 0.475; that for B11 was 0.936.
The value for B12 was 0.152.
B13 registered an ELISA data of 0.3.
Turning to B14, the ELISA data was 1.08.
The value for B15 was 0.993.
